Assay results taken from US5635615, “High affinity HIV nucleocapsid nucleic acid ligands” (NeXstar Pharmaceuticals, Inc.).

How the values were obtained:
Settings in all cases: tags: processed NC, 55 aa, from pBH10, gift of Agouron Pharmaceutical; label: 5'-32P
[1] = biological target: T1, HIV-1 nucleocapsid p7 (NC) (Human immunodeficiency virus type 1 …, UniProt P03347 P03347:378-432); experiment: filter; 10 mM NaOAc pH 5.3, 0.1 mM ZnCl2, 5 mM MgCl2, 100 mM NaCl, 37 C
Protocol: Binding assays were done by adding 5 μl of HIV-1 p7 nucleocapsid protein, at the appropriate concentrations (i.e., ranging from 6×10^-10 to 5×10^-8), to 45 μl of binding buffer (10 mM NaOAc (pH 5.3), 2 mM 2-mercaptoethanol, 0.1 mM ZnCl_2, 5 mM MgCl_2, 100 mM NaCl) on ice, then adding 80,000 cpm of kinased RNA (<200 fmoles) in a volume of 3 to 4 μl. This mix was incubated at 37° C. for 20 minutes. The reactions were then passed over nitrocellulose filters, which were pre-equilibrated in the same buffer, and washed five times with one milliliter each time using a 50 mM Tris-Cl pH 7.5 solution. Filters were dried and counted in cocktail. The protein used in these experiments were frozen and thawed only once. Each binding curve consisted of seven points and each point is the average of duplicates.
The dissociation constants for 12 of the 14 RNA species were determined by nitrocellulose filter binding. These experiments were carried out in duplicates. All binding curves were done using γ-^32P labeled RNA in binding buffer containing 100 mM NaCl.

[2] = biological target: T1, HIV-1 nucleocapsid p7 (NC); experiment: inhibition; about 50% inhibition of NC-stimulated annealing of con+/con- DNA, 10 nM NC
Protocol: (§1) This buffer was used and the concentration of each oligo was reduced keeping their action time constant to find an oligo concentration that would give less than 10% duplex formation under these conditions. The conditions in the reaction used for inhibition assay was as follows. 400 pM each DNA oligo (con+/−) was mixed with 10 nM nucleocapsid for 6 minutes at 37° C. in binding buffer containing 200 mM NaCl in a reaction volume of 30 µl. After this time, reactions were stopped by placing on ice and loaded on gel after 2 minutes. Gels were run at 250 volts for 3.5 hours. In reactions where random RNA was added as inhibitor, the concentrations range from 6500 nM to 9 nM. Where selected RNAs were used, the range was 720 nM to 0.11 nM.

[3] = biological target: T1, HIV-1 nucleocapsid p7 (NC); experiment: inhibition; inhibition of NC-stimulated annealing of con+/con- DNA, 10 nM NC
Protocol: as §1

Row | Binder | Kd [1] [nM] | IC50 [2] [nM] | Ki [3] [nM]
1 | 400-17 (ssRNA) RNA: GGGAGCUCAGAAUAAACGCUCAAGUUCUGAGAACUCUCCCCAUUCUAGUGUGCUUCGACAUGAGGCCCGGAUCCGGC | 2 | ~0.5 | 
2 | 400-23 (ssRNA) RNA: GGGAGCUCAGAAUAAACGCUCAACUGAGAACUCUCCCGCUCGCAUUAUUAACCUUCGACAUGAGGCCCGGAUCCGGC | 6 |  | 3
